First the molecules themselves.
B1: Erenumab CEX-HPLC Acidic Fraction F3 (antibody, human IgG2, lambda, V domains shown)
VH: QVQLVESGGGVVQPGRSLRLSCAASGFTFSSFGMHWVRQAPGKGLEWVAVISFDGSIKYSVDSVKGRFTISRDNSKNTLFLQMNSLRAEDTAVYYCARDRLNYYDSSGYYHYKYYGMAVWGQGTTVTVSS
VL: QSVLTQPPSVSAAPGQKVTISCSGSSSNIGNNYVSWYQQLPGTAPKLLIYDNNKRPSGIPDRFSGSKSGTSTTLGITGLQTGDEADYYCGTWDSRLSAVVFGGGTKLTVLG
modifications: disulfide isoforms by RP-HPLC: 11.2% IgG2-B, 55.1% IgG2-A/B, 32.4% IgG2-A
B2: Erenumab CEX-HPLC Basic Fraction F9 (antibody, human IgG2, lambda, V domains shown)
VH: B1 VH
VL: B1 VL
modifications: disulfide isoforms by RP-HPLC: 11.0% IgG2-B, 31.3% IgG2-A/B, 55.9% IgG2-A
B3: Erenumab CEX-HPLC Main Fraction F5 (antibody, human IgG2, lambda, V domains shown)
VH: B1 VH
VL: B1 VL
modifications: disulfide isoforms by RP-HPLC: 2.9% IgG2-B, 33.9% IgG2-A/B, 62.4% IgG2-A
B4: Erenumab CEX-HPLC Main Fraction F6 (antibody, human IgG2, lambda, V domains shown)
VH: B1 VH
VL: B1 VL
modifications: disulfide isoforms by RP-HPLC: 3.9% IgG2-B, 27.8% IgG2-A/B, 65.5% IgG2-A
B5: Erenumab CEX-HPLC Basic Fraction F8 (antibody, human IgG2, lambda, V domains shown)
VH: B1 VH
VL: B1 VL
modifications: disulfide isoforms by RP-HPLC: 2.0% IgG2-B, 23.3% IgG2-A/B, 73.3% IgG2-A
B6: Erenumab CEX-HPLC Acidic Fraction F4 (antibody, human IgG2, lambda, V domains shown)
VH: B1 VH
VL: B1 VL
modifications: disulfide isoforms by RP-HPLC: 7.0% IgG2-B, 52.5% IgG2-A/B, 39.4% IgG2-A
B7: Erenumab CEX-HPLC Acidic Fraction F2 (antibody, human IgG2, lambda, V domains shown)
VH: B1 VH
VL: B1 VL
modifications: disulfide isoforms by RP-HPLC: 21.4% IgG2-B, 40.4% IgG2-A/B, 35.8% IgG2-A
B8: Erenumab CEX-HPLC Basic Fraction F7 (antibody, human IgG2, lambda, V domains shown)
VH: B1 VH
VL: B1 VL
modifications: disulfide isoforms by RP-HPLC: 3.9% IgG2-B, 28.6% IgG2-A/B, 65.4% IgG2-A
B9: Erenumab SE-UHPLC Fraction HMW 2 (antibody, human IgG2, lambda, V domains shown)
VH: B1 VH
VL: B1 VL
B10: Erenumab SE-UHPLC Fraction HMW 1 (antibody, human IgG2, lambda, V domains shown)
VH: B1 VH
VL: B1 VL
B11: Erenumab SE-UHPLC Fraction Main (antibody, human IgG2, lambda, V domains shown)
VH: B1 VH
VL: B1 VL
B12: Erenumab HIC-HPLC Pre-peak Fraction F1 (antibody, human IgG2, lambda, V domains shown)
VH: B1 VH
VL: B1 VL
modifications: Asp105 isomerization 0.6%; Asp105 succinimide 0.2%; Asn102 deamidation ND; Leu195/Ser196 cleavage 10.9%; further cleavage sites Leu315/Thr316, Ser197/Val198, Leu192/Tyr193, Gly108/Tyr109, Asp105/Ser106
B13: Erenumab HIC-HPLC Main Fraction F5 (antibody, human IgG2, lambda, V domains shown)
VH: B1 VH
VL: B1 VL
modifications: Asp105 isomerization ND; Asp105 succinimide 0.1%; Asn102 deamidation ND; Leu195/Ser196 cleavage 0.3%
B14: Erenumab HIC-HPLC Post-peak Fraction F7 (antibody, human IgG2, lambda, V domains shown)
VH: B1 VH
VL: B1 VL
modifications: Asp105 isomerization (isoAsp) 2.4%; Asp105 succinimide 0.1%; Asn102 deamidation ND; Leu195/Ser196 cleavage 1.1%
B15: Erenumab HIC-HPLC Pre-peak Fraction F3 (antibody, human IgG2, lambda, V domains shown)
VH: B1 VH
VL: B1 VL
modifications: Asp105 isomerization (isoAsp) 19.6%; Asp105 succinimide 12.6%; Asn102 deamidation 1.2%; Leu195/Ser196 cleavage 0.5%
B16: Erenumab HIC-HPLC Post-peak Fraction F6 (antibody, human IgG2, lambda, V domains shown)
VH: B1 VH
VL: B1 VL
modifications: Asp105 isomerization (isoAsp) 13.2%; Asp105 succinimide 0.1%; Asn102 deamidation ND; Leu195/Ser196 cleavage 0.6%
B17: Erenumab HIC-HPLC Pre-peak Fraction F2 (antibody, human IgG2, lambda, V domains shown)
VH: B1 VH
VL: B1 VL
modifications: Asp105 isomerization (isoAsp) 26.4%; Asp105 succinimide 1.4%; Asn102 deamidation 0.1%; Leu195/Ser196 cleavage 1.0%
B18: Erenumab HIC-HPLC Pre-peak Fraction F4 (antibody, human IgG2, lambda, V domains shown)
VH: B1 VH
VL: B1 VL
modifications: Asp105 isomerization (isoAsp) 5.5%; Asp105 succinimide 4.3%; Asn102 deamidation 11.6%; Leu195/Ser196 cleavage 0.4%

The target of one experiment is T1, human CGRP receptor (human, UniProt Q16602 23-461; O60894 27-148). The experiment can be described thus: cell-based or functional assay.
T1 sequence (Q16602 23-461, chain 1 of 2): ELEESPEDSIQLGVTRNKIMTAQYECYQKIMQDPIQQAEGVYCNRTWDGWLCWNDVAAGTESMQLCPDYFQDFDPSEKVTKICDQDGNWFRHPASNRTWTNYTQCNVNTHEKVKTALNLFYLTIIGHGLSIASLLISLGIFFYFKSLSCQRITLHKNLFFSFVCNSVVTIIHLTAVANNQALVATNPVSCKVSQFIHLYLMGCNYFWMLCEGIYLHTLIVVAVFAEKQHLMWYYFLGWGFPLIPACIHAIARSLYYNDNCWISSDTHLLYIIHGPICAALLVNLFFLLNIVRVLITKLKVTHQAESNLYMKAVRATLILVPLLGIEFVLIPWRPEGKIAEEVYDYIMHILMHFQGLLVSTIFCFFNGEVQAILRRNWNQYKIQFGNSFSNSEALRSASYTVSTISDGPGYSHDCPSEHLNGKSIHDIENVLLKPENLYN
T1 sequence (O60894 27-148, chain 2 of 2): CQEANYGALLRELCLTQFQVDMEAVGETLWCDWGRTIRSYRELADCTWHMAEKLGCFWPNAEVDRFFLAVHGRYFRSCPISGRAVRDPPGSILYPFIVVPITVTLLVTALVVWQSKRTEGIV
Take B1: the “% Relative Potency by Cell-Based Bioassay” value (from here on “% Relative Potency”) was 71%.

B2: the “% Relative Potency” value turned out to be 98%.

For the molecule B3, the “% Relative Potency” value is 101%.

Regarding B4, the “% Relative Potency” value amounted to 92%.

Take B5: the “% Relative Potency” value is 102%.

As to B6, the “% Relative Potency” value was 82%.

As to B7, the “% Relative Potency” value was 58%.

Take B8: the “% Relative Potency” value amounted to 96%.

The target in another experiment is T1, human CGRP receptor. The experiment can be described thus: cell-based or functional assay. The source holds these as a separate data set.
Take B9: the “% Relative Potency” value worked out at 62%.

On to B10, for which the “% Relative Potency” value was determined as 42%.

Consider B11, for which the “% Relative Potency” value was 97%.

A further experiment addresses T1, human CGRP receptor. The experiment can be described thus: cell-based or functional assay. The source holds these as a separate data set.
As to B12, the “% Relative Potency” value amounted to 33%.

On to B13, for which the “% Relative Potency” value was determined as 107%.

With B14, the “% Relative Potency” value stood at 68%.

For B15, the “% Relative Potency” value came to 35%.

Turning to B16, the “% Relative Potency” value turned out to be 77%.

Consider B17, for which the “% Relative Potency” value was 24%.

For B18, the “% Relative Potency” value was determined as 34%.

Values taken from US20190300617A1 (Amgen, published 2019).
